{"source": "patent WO2005085862A1", "about": "(dated 2005)", "binders": {"B1": {"name": "Grp78-scFv clone-19 (scFv)", "scFv": "EVQLVESGGGVVQPGRSLRLSCAASGFTFSSYGMHWVRQAPGKGLEWVAVISYDGSNKYYADSVKGRFTISRDNSKNTLYLQMNSLRAEDTAVYYCARKINSTKEVWGQGTLVTVSSGGGGSGGGGSGGSALQSVLTQPPSASGTPGQRVTISCSGSSSNIGSNYVYWYQQLPGTAPKLLIYRNNQRPSGVPDRFSGSKSGTSASLAISGLRSEDEADYYCAAWDDSLNPLVVFGGGTKLTVLGAAAHHHHHHGAAEQN", "notes": "Tested as soluble scFv made in E. coli HB2151 and purified on a Ni column, apparent size about 29 kDa; It was detected through its c-myc tag with mAb 9E10; also called anti-Grp78 scFv-19; scFv-19"}}, "target": "T1, human Glucose-regulated protein 78 (Grp78) (human, UniProt P11021 19-654)", "T1 construct": "whole, on cells; also called Grp78/Bip; cell surface localized Grp78", "T1 sequence (P11021 19-654)": "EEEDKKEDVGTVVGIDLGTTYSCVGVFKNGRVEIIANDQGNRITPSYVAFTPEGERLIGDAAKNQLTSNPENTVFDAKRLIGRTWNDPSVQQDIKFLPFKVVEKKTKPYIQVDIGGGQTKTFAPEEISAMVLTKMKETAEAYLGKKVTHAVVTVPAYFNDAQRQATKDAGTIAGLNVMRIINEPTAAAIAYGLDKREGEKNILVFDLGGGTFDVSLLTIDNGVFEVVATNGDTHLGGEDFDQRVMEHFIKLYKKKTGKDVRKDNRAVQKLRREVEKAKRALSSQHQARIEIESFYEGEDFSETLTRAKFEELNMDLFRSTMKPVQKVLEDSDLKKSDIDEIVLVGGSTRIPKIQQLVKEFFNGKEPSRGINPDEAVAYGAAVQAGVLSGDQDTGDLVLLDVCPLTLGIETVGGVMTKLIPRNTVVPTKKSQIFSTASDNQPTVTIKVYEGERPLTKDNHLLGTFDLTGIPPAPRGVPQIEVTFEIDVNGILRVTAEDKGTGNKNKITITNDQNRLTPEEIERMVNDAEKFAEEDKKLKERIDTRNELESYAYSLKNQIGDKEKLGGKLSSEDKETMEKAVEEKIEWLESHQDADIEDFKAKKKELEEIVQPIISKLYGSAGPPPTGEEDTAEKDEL", "assay": "western blot of whole cell extracts with purified scFv"}
{"binder": "B1", "values": [{"measurement": "binding result", "value": "binds"}]}
